Drawing on PMC6744678, this text covers response (relative intensity (GST = 1.0)) for one molecule.

The test concerns the target T1, taxol-stabilized microtubules, P02550.
T1 chain: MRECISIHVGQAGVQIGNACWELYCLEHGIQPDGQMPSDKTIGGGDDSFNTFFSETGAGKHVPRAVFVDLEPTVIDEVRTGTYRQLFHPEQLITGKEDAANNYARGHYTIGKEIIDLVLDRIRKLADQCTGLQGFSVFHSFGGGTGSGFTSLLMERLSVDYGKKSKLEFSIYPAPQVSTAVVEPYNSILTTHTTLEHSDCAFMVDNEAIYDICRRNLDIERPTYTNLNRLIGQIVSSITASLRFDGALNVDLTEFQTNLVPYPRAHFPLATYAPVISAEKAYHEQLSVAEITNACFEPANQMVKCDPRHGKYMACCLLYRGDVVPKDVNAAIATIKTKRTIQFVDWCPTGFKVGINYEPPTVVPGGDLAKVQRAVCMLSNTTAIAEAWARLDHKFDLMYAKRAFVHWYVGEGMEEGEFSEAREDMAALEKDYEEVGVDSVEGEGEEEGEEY
The test is described as follows: GST pull-down of microtubules, quantified tubulin band intensity. The following applies: chain shown with the change; BRB80 buffer at room temperature; n=3; parent: est. 27; read off a plot.

B1: GST-tagged full-length (1-314 aa) CCDC74B M67N; L68N; A69N; L71N; L230N; L233N; L234N (protein)
chain: MSGAGVAAGTRPPSSPTPGSRRRRQRPSVGVQSLRPQSPQLRQSDPQKRNLDLEKSLQFLQQQHSENNNKNHEEIEHLKRENKDLRYKLIMNQTSQKKDSLSTSSFQSVKSISNSGKARPQPGSFNKQDSKADVPQKADLEEEPLLHNSKLDKVPGVQGQARKEKAEASNAGAACMGNSQHQGRQMGAAAHPPMILPLPLRKPTTLRQCEVLIRELWNTNLLQTQELQHNKSNNEGSQRPQAVPEEASFPRDQEATHFPKVSTKSLSKKCLLLSPPVAERAILPALKQTPKNNFAERQKRLQAMQKRRLHRSVL
As to B1, the response (relative intensity (GST = 1.0)) amounted to 25.
